Source: patent US20160083712A1 (UNIVERSITY OF LEICESTER, published 2016)

Target: the molecule itself
Experiment: crystal structure, PISA analysis of assemblies

B1: CSN51-257 wild type (human CSN5 residues 1-257, GST tag cleaved off) (enzyme)
chain: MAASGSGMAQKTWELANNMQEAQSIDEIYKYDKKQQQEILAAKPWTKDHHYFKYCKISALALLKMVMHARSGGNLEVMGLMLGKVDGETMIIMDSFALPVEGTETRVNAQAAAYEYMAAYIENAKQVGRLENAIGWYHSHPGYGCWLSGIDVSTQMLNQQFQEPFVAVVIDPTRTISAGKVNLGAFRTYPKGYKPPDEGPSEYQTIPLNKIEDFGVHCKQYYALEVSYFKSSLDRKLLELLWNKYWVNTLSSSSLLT
notes: Purified after cleavage by GST-3C protease; Crystallised form (PDB 4F70; SeMet-labelled for the crystal); Monomer-dimer equilibrium in solution; also called WT protein
- binding result: binds
